Test results: the supplement of paper PMC12042874
± gives the uncertainty stated by the source.

Assay: amyloid nucleation score (Sup35N fusion, yeast selection) (log enrichment); library NNK2; higher = more nucleation; inactive = no reads after selection
In short: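 DiMSum was used to calculate nucleation scores as log enrichment of output over input reads, centred on the mode score of non-aggregating sequences. Sequences with fewer than 100 input reads were not scored. Input and output came from Illumina sequencing of plasmid inserts in psi-negative yeast expressing peptides of 20 random codons fused to Sup35N, induced 24 hours with 100 μM copper sulfate and then grown 7 days at 30°C on medium lacking adenine and uracil.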

| Substance | amyloid nucleation score |
| --- | --- |
| YNSVELYFACLFLAHAVLVY | inactive |
| LFFDTCRIPRSYWSCLEEES | -0.206 ± 0.42 |
| HFYCMV | 4.51 ± 0.11 |
| SYVCRYITVPGFDTN | 4.76 ± 0.08 |
| VNSEPDTLEGNENWYMGTRC | -0.125 ± 0.49 |
| YPCPAVVCSYAA | 0.705 ± 0.44 |
| FGDYPNSLKWLQE | -0.558 ± 0.63 |
| SHTPLTG | -0.939 ± 1 |
| YGSLVYVPAYGEISL | -0.921 ± 0.5 |
| TYSGEIKL | inactive |
| ITISLLLGHYDCCCVTLLQE | 7.263 ± 0.027 |
| EELKYYSISVMLRGRHALLI | -0.894 ± 0.56 |
| RMPGWY | inactive |
| NITLYFKRSLDLFGEPMWTQ | 1.53 ± 0.16 |
| FVTAKSYNVLISKGYRKELL | -0.716 ± 0.48 |
| AFHRECPGSSVQDWFTWRGT | -0.36 ± 0.63 |
| VPSTIWMTR | 0.585 ± 0.38 |
| YNSVFLRNLRSVGWTKAPLW | -0.387 ± 0.76 |
| YIGPNKFLKQFDCLINFFLT | 3.08 ± 0.097 |
| RVMYGGCFHSRKRASVPYLY | -0.405 ± 0.76 |
| GLGVSTKRLYFTMMADCFNG | 0.131 ± 0.49 |
| SLWNIVRCRVENDSSGTQGF | -0.414 ± 0.5 |
| SVCELKW | 0.53 ± 0.38 |
| TSIMPDSFFRSLKVSF | -0.249 ± 0.56 |
| LNMVMLICNLWDVPHPRYLP | 5.14 ± 0.052 |

| Substance | amyloid nucleation score |
| --- | --- |
| PVCWAAFRYTYKARMKRWSK | 5.06 ± 0.055 |
| EVLRKQIVRTRAVQVHFCLT | 1.15 ± 0.15 |
| RHMSTVKTLSEGLNLESGLI | -0.519 ± 0.74 |
| KNWVYVAWRRENYEQPFIR | -0.299 ± 1 |
| LVSQLPVDFMVTFDILTVEI | -0.184 ± 1.1 |
| LVLLSFGSV | -0.127 ± 1 |
| VMCFVDRDRFCNLFKLCLEF | -1.45 ± 0.49 |
| FCSHMLARTYLKCGREDR | -0.337 ± 1 |
| SNVLFWI | inactive |
| TDQDT | 0.516 ± 0.32 |
| NKVSEFYDGVHFC | -0.235 ± 1.1 |
| NWSGMPLPFLTFRKRFVEV | -0.998 ± 1 |
| GREPESF | 1.72 ± 0.13 |
| TTYSRS | -1.26 ± 0.62 |
| NVRIVYRPAGPFG | -0.347 ± 0.39 |
| AKDRTCRWLISKQSIPDSRA | 0.119 ± 0.27 |
| CSFLSLY | -0.485 ± 0.64 |
| FSDIWPLRP | 0.806 ± 0.15 |
| LVCNPYMRDTARSESLGSAW | 0.923 ± 0.66 |
| IVCITTSNVLTCDIDGNITK | 4.27 ± 0.044 |
| SRLPLTSMTNSHSWA | 0.363 ± 0.43 |
| FSFLKLIADPATLVIGTDSW | -0.492 ± 0.3 |
| KYYCATSSVFYASSRQMFKS | -0.267 ± 0.49 |
| EGIILFRKDRELTGGRLTNV | -0.145 ± 1.1 |
| KPDCVLTTGFTSSLRFIMKK | -0.007 ± 0.55 |

| Substance | amyloid nucleation score |
| --- | --- |
| ELMVTVVDHCTFVVTRLCGE | 7.184 ± 0.064 |
| SRTWEFSFR | 2.5 ± 0.12 |
| HEECIGSCCYGRWSCGTTLW | 4.84 ± 0.054 |
| TTLRCHLIESKWGYVRRLTW | 4.33 ± 0.088 |
| RLSSYILAIYSNRAKYF | 0.412 ± 0.5 |
| VDTELKVNSYRPGWTEHSRT | 0.738 ± 0.21 |
| YIIGSNEFSEHETDLNGYQT | -0.938 ± 0.62 |
| VRMSLTLSFQVLAYWEGFIK | -0.64 ± 0.49 |
| RRISSKECLYRWGALWYIEI | 0.086 ± 0.61 |
| LSFDEVTLVRAKFHGSVIRL | 4.86 ± 0.06 |
| VPWSLGLCSIFRSFK | 2.38 ± 0.16 |
| DLFLRYY | inactive |
| YYDFVVNGGDGLSIEYNSRG | 0.405 ± 0.74 |
| STVELEQYGSSARADYLVWR | 0.58 ± 0.64 |
| MFVYADFSHILEKRGHTGNR | 2.64 ± 0.15 |
| VISSLSISCYDHSVYVKAVK | 0.445 ± 0.33 |
| KPDTMNFWVVLALNFDLGRT | 2.77 ± 0.099 |
| PHCCCRTSHLSPLNQRDKGS | 0.11 ± 0.77 |
| DELDVFG | -0.893 ± 0.44 |
| YMYLVVCLIVSHDPVSVVEW | inactive |
| ILQVPRTFFIRSHRSSVHL | inactive |
| FSYMWAHTGSFPRRQVIITI | -0.596 ± 0.55 |
| TGPGSFFRRSGDTHLYSRDG | inactive |
| NNLGKEWKNIWGECLRRVAP | 4.48 ± 0.079 |
| FVTCYKLWMAFYTMVQSRKS | 1.17 ± 0.48 |

| Substance | amyloid nucleation score |
| --- | --- |
| GILMISDAYDIREYFKLVTF | -1.32 ± 0.62 |
| HLCSCTMWGPHNRGFYYHWC | inactive |
| NLSRRCKIADWSIHCATIHE | -0.235 ± 1.1 |
| SLLKNPASMCSNSIFCAYVG | 8.708 ± 0.069 |
| GSYKSGSSSA | 2.57 ± 0.1 |
| RLMDGYSSV | 0.548 ± 0.29 |
| TRVFTSWFVV | 0.342 ± 0.65 |
| PISNAYCMGTNRSLRIGIRC | 0.641 ± 0.21 |
| LNTMPRK | 0.004 ± 1.1 |
| RHDLWAPRTERMMVYMCTAA | 0.544 ± 0.26 |
| MCTAFSDNHHTRTYPAPKSH | 0.196 ± 0.46 |
| TLMDLNNHPTYGYLLVPTVD | -0.307 ± 0.79 |
| FSGIYESPMVLHMV | -1.97 ± 0.62 |
| RYYVSEPLGDFAWFFPGDHR | inactive |
| QSKMH | -0.321 ± 0.19 |
| KLHRLTGGHYDPNCDNGPVD | 3.68 ± 0.059 |
| FEAYYWLADLNLLCYLGVRS | 3.79 ± 0.052 |
| TGRHKVTDLRIWILWSYTGA | -0.398 ± 0.63 |
| PGSVTGMLWSGTFEVRYLGL | 0.101 ± 0.26 |
| QPPMRVYSLVMLCDAVSSKD | 0.339 ± 0.56 |
| TGMQMFMVVWLGQLDRSDTI | 1.07 ± 0.28 |
| RGVLVEFYGAMENISWSTYW | -0.497 ± 0.76 |
| VHRLRMGRVWFDKDSDVVGK | 0.148 ± 1 |
| IQPPQFFAFI | inactive |
| KYDGAFQRGGIIQISYLCLW | 4.87 ± 0.071 |

| Substance | amyloid nucleation score |
| --- | --- |
| SLIVAIRFTA | 2.5 ± 0.24 |
| WNTIYMSTFVIRDFAIYIKY | 7.53 ± 0.058 |
| TYLKHVRKS | 1.11 ± 0.24 |
| SVVFLRLGYGKLRV | -0.159 ± 1 |
| YRLFWFNC | 1.74 ± 0.11 |
| CTSDVGGSQERVGSIQANSN | 2.48 ± 0.2 |
| FIFKGNQWKVFVFL | 2.83 ± 0.068 |
| SDGLGSILIFGPPNY | -0.992 ± 0.3 |
| VKLHSVSYLIFLL | 4.8 ± 0.11 |
| SRHVLSKRFRWYT | 0.196 ± 0.26 |
| MDSDNFLQYYSRYFNEVAFC | -0.145 ± 0.79 |
| RTSRVVIKILDPFQFVMLFI | -0.211 ± 0.49 |
| RQLLTKCLCASTGGFIFSWD | 0.792 ± 0.8 |
| VISSRGALCRRAKQ | 0.409 ± 0.53 |
| VYGYDKISHFVHSMNSNIVW | inactive |
| HVTRVSVLQVLELHSTMTGV | 4.09 ± 0.09 |
| LEQKVIIRCCPN | 0.091 ± 0.18 |
| VKHIGGISARVYKNCAASAV | -0.74 ± 0.63 |
| CHLLSRSCKFYGD | -0.898 ± 1.1 |
| WTSLSNVFRLTNMYTRVSKW | -0.55 ± 0.76 |
| TRAPGRDFVGEGEACALDET | -0.799 ± 0.54 |
| CVHTAVVRILIRAKKAGLIT | inactive |
| HVYIGVNLKRENKTHQTSSV | 4.77 ± 0.064 |
| KRSTNWKDC | -1.07 ± 0.64 |
| PTRCRVSYKRLRCSQLSLQL | -0.012 ± 0.79 |

| Substance | amyloid nucleation score |
| --- | --- |
| CDGAPSRLGRGLWGWSIMYG | 0.921 ± 0.51 |
| DSVIRRNKNTSTL | -0.275 ± 0.25 |
| MGPKSRFRSTRNGVKYL | -0.571 ± 0.64 |
| SLAPQMLPCHFSWILDPCC | -0.01 ± 1 |
| RADGSFMKLLA | -0.628 ± 0.5 |
| GYSTRIGASFGLGPVGCSAR | 3.06 ± 0.087 |
| FSFEWMFWGWTCNQGTDVVS | -0.319 ± 0.54 |
| YIRLQAIQSEVERSSVPVIK | 2.16 ± 0.083 |
| RFTFFAGAS | 0.367 ± 0.21 |
| FSYFVFLVKFVTVFTPTIHV | -1.12 ± 0.3 |
| VMARYMFVK | 0.064 ± 0.65 |
| LKATQLYGFYMTEKCVDSSW | -0.549 ± 1 |
| GDRDVI | 1.31 ± 0.38 |
| NHKAIYLRPSSTNPEILSRA | 1.15 ± 0.47 |
| YLVGRYETTVSTKMNKMRCW | -0.175 ± 0.53 |
| NYCMRGVASIG | -0.475 ± 0.45 |
| IGVYSVWNFMMVRSADARFN | 3.4 ± 0.16 |
| SEVCNCVGLGSGCDVYGA | 3.17 ± 0.094 |
| AFTCYVETSIIMPNMS | -0.734 ± 0.76 |
| VRFKYIYHTGLDDVAVNQY | -0.487 ± 0.55 |
| QPSFPTHCQDRFVEECINEV | inactive |
| RELCVFASCAFVGLLVESWK | 6.16 ± 0.078 |
| FFFMTKNFKIFTSALDVPSE | -1.14 ± 1.1 |
| GTARDGRYSSMKVSDRYFVR | inactive |
| CNSIDMTHKVTLKMSFIFIE | 6.703 ± 0.061 |

| Substance | amyloid nucleation score |
| --- | --- |
| SSFVIPSKR | -1.31 ± 0.78 |
| VLGVLR | inactive |
| MTNMT | 1.18 ± 0.61 |
| HLDGWRNFDYDIS | -2.3 ± 0.78 |
| LYVSALTSVRSWGCGNLVLP | 3.37 ± 0.08 |
| VFVSWILFTVSPFIIRYRVN | -1.72 ± 0.75 |
| ILSNELFYLLYEW | 8.798 ± 0.079 |
| GVVYLGNRLISFSRSLSLKT | 0.387 ± 0.45 |
| NGTFSCGERVIEINDDSLSD | 0.486 ± 0.8 |
| IDLNLYERFDFQFTVSVPSV | inactive |
| APFQRPSSPTDREYRNGALL | 1.27 ± 0.23 |
| LLFQVLPKMTSAPPSGWSTP | 0.547 ± 0.81 |
| QMETSFL | -1.58 ± 1.1 |
| AISVKKWSFHEKKRNTMLT | -0.027 ± 0.28 |
| VSMEKVRSDGMDRFASGFAA | 0.361 ± 0.29 |
| WWRNFD | -0.526 ± 0.76 |
| TILDIVLIIPAKVVHKEERR | -0.093 ± 0.41 |
| RMCVWHMLVIGVRGKTGATR | 3.01 ± 0.11 |
| YSCRGEVKLKCDTSVGGPRR | 0.922 ± 0.2 |
| NALGRMCGSWRLVIHISDWW | 0.236 ± 0.23 |
| FSSSFVVWALYPVTFHLTRS | 0.112 ± 0.4 |
